Tests used:
CmnA-A2-CmnN = biological target: T1, CmnA-A2-CmnN (Saccharothrix mutabilis, UniProt A6YEH2); experiment: enzyme activity assay (amino acid activation); type: biochemical
T1 construct: second adenylation domain of CmnA, with MbtH-like protein CmnN, recombinant; with MbtH-like protein CmnN
T1 sequence (A6YEH2 1420-1895 limits assumed): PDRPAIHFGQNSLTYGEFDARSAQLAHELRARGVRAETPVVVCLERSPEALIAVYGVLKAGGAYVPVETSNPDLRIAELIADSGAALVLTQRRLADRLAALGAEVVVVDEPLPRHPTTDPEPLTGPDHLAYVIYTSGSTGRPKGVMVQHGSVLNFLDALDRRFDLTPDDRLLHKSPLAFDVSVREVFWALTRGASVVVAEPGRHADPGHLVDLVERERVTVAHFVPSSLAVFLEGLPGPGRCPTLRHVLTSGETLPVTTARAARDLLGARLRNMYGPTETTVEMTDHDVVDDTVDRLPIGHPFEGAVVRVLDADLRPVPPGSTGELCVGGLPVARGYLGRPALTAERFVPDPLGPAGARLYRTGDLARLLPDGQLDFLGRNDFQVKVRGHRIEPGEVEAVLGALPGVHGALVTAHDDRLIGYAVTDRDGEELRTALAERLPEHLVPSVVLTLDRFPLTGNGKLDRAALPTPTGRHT
T1 sequence (A6YEI5 1-62 partner): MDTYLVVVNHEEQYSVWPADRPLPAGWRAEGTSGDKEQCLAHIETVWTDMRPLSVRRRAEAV

CmnA-A1–CmnN = biological target: T2, CmnA-A1–CmnN (Saccharothrix mutabilis, UniProt A6YEH2); experiment: in vitro loading onto CmnI-T, intact protein Q-TOF MS; adenylation activity assay; type: biochemical; settings: ATP, Mg2+; holo-CmnI-T as acceptor
T2 construct: first adenylation domain (module 1) of CmnA, co-expressed with MbtH-like protein CmnN in E. coli; with MbtH-like protein CmnN
T2 sequence (A6YEH2 450-890 limits assumed): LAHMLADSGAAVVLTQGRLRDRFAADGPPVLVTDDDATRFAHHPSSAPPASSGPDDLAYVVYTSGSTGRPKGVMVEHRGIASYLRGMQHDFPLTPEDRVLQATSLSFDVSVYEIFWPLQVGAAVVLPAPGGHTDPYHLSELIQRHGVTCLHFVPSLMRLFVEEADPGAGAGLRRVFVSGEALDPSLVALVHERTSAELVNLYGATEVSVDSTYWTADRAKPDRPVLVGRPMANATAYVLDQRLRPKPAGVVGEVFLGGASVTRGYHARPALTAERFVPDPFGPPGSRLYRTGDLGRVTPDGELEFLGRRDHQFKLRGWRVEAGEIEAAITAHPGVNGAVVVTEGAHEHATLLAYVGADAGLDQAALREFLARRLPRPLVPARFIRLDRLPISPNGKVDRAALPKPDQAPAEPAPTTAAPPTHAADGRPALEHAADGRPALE
T2 sequence (A6YEI5 1-62 partner): T1 sequence (A6YEI5 1-62 partner)

CmnA-A2-CmnN complex = CmnA-A2-CmnN complex (Saccharothrix mutabilis subsp. capreolus, UniProt A6YEI5 1-62, The printed limits Leu1832-Gly1896 give only 65 residues, which does not fit the stated 55.5 kDa. They are read as a digit transposition of Leu1382-Gly1896 (515 residues). An added initiator Met is le); experiment: BLI; biolayer interferometry; which partner was immobilised and the conditions are in the Supporting Information (not shown); settings: both partners purified
CmnA-A1–CmnN complex = CmnA-A1–CmnN complex (Saccharothrix mutabilis subsp. capreolus, UniProt A6YEI5 1-62, An added initiator Met precedes His364 and is left out. The His-tag on CmnN is thrombin-cleaved. A6YEI5 is taken as CmnN because it is MbtH-like.); experiment: as above; settings: both partners purified

Molecule: C[C@H](N)C(=O)O [L-Ala]
- enzyme activity assay (amino acid activation) (CmnA-A2-CmnN): CmnA-A2 is capable of activating both L-Ser and L-Ala

Molecule: N[C@@H](CO)C(=O)O [L-Ser]
- enzyme activity assay (amino acid activation) (CmnA-A2-CmnN): CmnA-A2 is capable of activating both L-Ser and L-Ala

Molecule: NC[C@H](N)C(=O)O [L-Dap]
- in vitro loading onto CmnI-T, intact protein Q-TOF MS; adenylation activity assa (CmnA-A1–CmnN): CmnA-A1 specifically recognizes and activates the nonproteinogenic amino acid L-Dap

B1: CmnI (enzyme, Saccharothrix mutabilis subsp. capreolus, UniProt A6YEI0 1-548, looked up)
chain: MTTETPATTGAPATTGAPAPPGRAEIVAAVLPVFAEVLDAPDLTPDSDFFVHGGNSLLAIRVAGRVGRRLGRQVPPAGVLKHPTPDLLAAHLEEEFRGGGAPPIPAPRAGAEADRRPSTAQERVWLLHQLDPDRLDHLVTVALDVAGTVDPAAFTAAWTAVVRRHEALRSRFVKADDDRVAVVVDAEAAPEISVLDLARFPAPVRDRLAEERVRLLRTTPIRLDTGPLARFALLRLADRRYRIELAVHHIVCDGWSLDTLLADFLDAYGRALAGRSPALPPPAVGFADYVAWERDVESSRWPDMAVRLARRFADRPADLPLPVDPVDVPAHEDGDDVTVHAPPGLAAAVERARTSFGHTALTFHLTALGVLLARITGVDDLVVAVPVAGRAQTEHEDLVGLFVNTALARVRLGGTSDVRVLLERNRDEVDELVDCQTFPFDRLVDLLGARRAGTRVPLARVSLAVQNFDDPGTPAPELGFTWQFRDPPERQSKFDLAFTVSDTDGLRLTVTYRPSLFRRATVAAWAGQYLVALEHVVRGVADPEGSAR
notes: CmnI, A domain-less NRPS module 3 (T-C didomain) of capreomycin biosynthesis, Saccharothrix mutabilis subsp. capreolus; calculated molecular weight of the apo-form construct 61 484.72 Da; also called A domain-less NRPS module CmnI; source: purified
- Kd (CmnA-A2-CmnN complex): 4.93 µM
- koff (CmnA-A2-CmnN complex): 0.000728 s⁻¹
- kon (CmnA-A2-CmnN complex): 148 M⁻¹ s⁻¹
- Kd (CmnA-A1–CmnN complex): 1.85 µM
- koff (CmnA-A1–CmnN complex): 0.000477 s⁻¹
- kon (CmnA-A1–CmnN complex): 258 M⁻¹ s⁻¹

Reference: PMC12400406 (Organic Letters, 2025)
